According to patent US20220204611A1 (Amgen, published 2022):

Tests used:
human TREM2 on cells [1] = biological target: T1, human TREM2 on cells (human, UniProt Q9NZC2 19-230); experiment: cell-based or functional assay
T1 sequence: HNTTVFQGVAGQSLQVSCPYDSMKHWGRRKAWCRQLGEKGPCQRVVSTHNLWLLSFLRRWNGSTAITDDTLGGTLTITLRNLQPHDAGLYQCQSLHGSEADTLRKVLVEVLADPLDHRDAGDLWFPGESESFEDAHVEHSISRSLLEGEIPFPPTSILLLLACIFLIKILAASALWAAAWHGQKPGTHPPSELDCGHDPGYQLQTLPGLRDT

[2] = biological target: T2, recombinant soluble human TREM2 protein (human TREM2 ECD-FlagHis) (human, UniProt Q9NZC2 19-174); experiment: Octet BLI binning; competitor: load Ab 5E3
T2 sequence: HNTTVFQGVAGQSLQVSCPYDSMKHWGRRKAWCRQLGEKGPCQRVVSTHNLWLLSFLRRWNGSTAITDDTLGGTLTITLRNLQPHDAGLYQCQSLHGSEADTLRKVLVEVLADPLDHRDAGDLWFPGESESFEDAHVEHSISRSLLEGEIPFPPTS
Method: (§1) Each of sixteen different anti-TREM2 antibodies produced from hybridomas were quantitated and loaded onto one of the anti-human Fc sensors at 5 μg/mL for 2 minutes (“Load Antibody”). The sensor was then blocked with 100 μg/mL of an irrelevant human IgG2 antibody for 5 minutes. […] Next, each of the sixteen different anti-TREM2 antibodies (“Sandwich Antibody”) was added to the sensor at 5 μg/mL and allowed to bind for 5 minutes. All assay buffers contained 10 mM Tris (pH 7.6), 0.1% Triton X-100, 150 mM NaCl, 1 mM CaCl₂, and 1 mg/mL BSA. The assay was conducted at 25° C. Experimental kinetic results were fit to a 1:1 binding model.
(§2) However, if addition of the sandwich antibody produces a binding event, then the sandwich antibody binds to a different epitope on human TREM2 than the load antibody and the two antibodies are categorized into different epitope bins.

[3] = biological target: T2, recombinant soluble human TREM2 protein …; experiment: Octet BLI binning; competitor: load Ab 6E7
Method: as §1, §2

[4] = biological target: T2, recombinant soluble human TREM2 protein …; experiment: Octet BLI binning; competitor: load Ab 10E3
Method: as §1, §2

[5] = biological target: T2, recombinant soluble human TREM2 protein …; experiment: Octet BLI binning; competitor: load Ab 13E7
Method: as §1, §2

[6] = biological target: T2, recombinant soluble human TREM2 protein …; experiment: Octet BLI binning; competitor: load Ab 16B8
Method: as §1, §2

[7] = biological target: T2, recombinant soluble human TREM2 protein …; experiment: Octet BLI binning; competitor: load Ab 24F4
Method: as §1, §2

[8] = biological target: T2, recombinant soluble human TREM2 protein …; experiment: Octet BLI binning; competitor: load Ab 24G6
Method: as §1, §2

[9] = biological target: T2, recombinant soluble human TREM2 protein …; experiment: Octet BLI binning; competitor: load Ab 26F2
Method: as §1, §2

[10] = biological target: T2, recombinant soluble human TREM2 protein …; experiment: Octet BLI binning; competitor: load Ab 32E3
Method: as §1, §2

[11] = biological target: T2, recombinant soluble human TREM2 protein …; experiment: Octet BLI binning; competitor: load Ab 24A10
Method: as §1, §2

[12] = biological target: T2, recombinant soluble human TREM2 protein …; experiment: Octet BLI binning; competitor: load Ab 25F12
Method: as §1, §2

[13] = biological target: T2, recombinant soluble human TREM2 protein …; experiment: Octet BLI binning; competitor: load Ab 26A10
Method: as §1, §2

[14] = biological target: T2, recombinant soluble human TREM2 protein …; experiment: Octet BLI binning; competitor: load Ab 26C10
Method: as §1, §2

[15] = biological target: T2, recombinant soluble human TREM2 protein …; experiment: Octet BLI binning; competitor: load Ab 33B12
Method: as §1, §2

[16] = biological target: T3, soluble human TREM2 protein (TREM2 ECD-huIgG1 Fc fusion protein) (human, UniProt Q9NZC2 19-174, biotinylated); experiment: ELISA, hybridoma supernatant on captured biotinylated TREM2 ECD-Fc
T3 construct: also called biotinylated soluble human TREM2 protein
T3 sequence: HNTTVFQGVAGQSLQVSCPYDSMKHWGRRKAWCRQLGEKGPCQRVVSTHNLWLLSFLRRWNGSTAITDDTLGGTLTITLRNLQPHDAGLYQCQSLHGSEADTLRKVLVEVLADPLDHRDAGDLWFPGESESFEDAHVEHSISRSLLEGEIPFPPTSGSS
Method: Exhausted hybridoma supernatants were tested for binding to human TREM2 by ELISA. Briefly, neutravidin plates were generated by incubating a 384 well Corning Assay Plate 3702 with neutravidin (Thermo 3100B) at 10 μg/mL (40 μL/well) in 1× PBS at 4° C. overnight. The plates were washed with 1× PBS using a Biotek plate washer and then blocked with 1% milk/1× PBS (90 μL/well) at room temperature (RT) for 30 minutes. The plates were then washed again with 1× PBS using the plate washer. […] The plates were then incubated at RT for 1 hour to immobilize the TREM2 protein to the wells of the plates. Following the incubation, the plates were again washed with 1× PBS using the plate washer. 10 μL of each hybridoma supernatant to be tested and 40 μL of 1% milk/1× PBS (1:5 dilution) were added to each well of the plates and incubated at RT for 1 hour. Again, the plates were washed with 1× PBS using the plate washer. […] After the plates were washed with 1× PBS using the plate washer, 40 μL/well of TMB substrate (Neogen, lot #150114) was added to the plates and the plates were incubated at RT for 30 minutes. The reaction was quenched with 1N hydrochloric acid (40 uL/well) following the incubation period. OD readings at 450 nm were obtained with a plate reader.

human TREM2 on cells [17] = biological target: T1, human TREM2 on cells; experiment: cell-based or functional assay; remark: listed apart in the source
[18] = biological target: T2, recombinant soluble human TREM2 protein …; experiment: Octet BLI binning; competitor: load Ab 4C5
Method: as §1, §2

[19] = biological target: T2, recombinant soluble human TREM2 protein …; experiment: Octet BLI binning; competitor: load Ab 4G10
Method: as §1, §2

Row | Binder | pSyk EC50 (human TREM2 on cells [1]) [nM] | sandwich binding signal [2] | sandwich binding signal [3] | sandwich binding signal [4] | sandwich binding signal [5] | sandwich binding signal [6] | sandwich binding signal [7] | sandwich binding signal [8] | sandwich binding signal [9] | sandwich binding signal [10] | sandwich binding signal [11] | sandwich binding signal [12] | sandwich binding signal [13] | sandwich binding signal [14] | sandwich binding signal [15] | OD 450 [16] [OD450] | Emax (% maximum activation compared to RnD antibody) (human TREM2 on cells [17]) [%] | pSyk EC50, differentiated THP-1 cells (human TREM2 on cells [17]) [nM] | sandwich binding signal [18] | sandwich binding signal [19]
1 | 24A10 (antibody, human IgG2, V domains shown, human IgG2 from hybridoma) VH: EVQVLESGGGLVQPGGSLRLSCAASGFTFSNYAMSWVRQAPGKGLEWVSAISGSGGSTYYADSVKGRFTISRDNSKNTLYLQMNSLRAEDTAVYYCAKGGWELFYWGQGTLVTVSS VL: not shown | 32.9 | 0.53 | 0.616 | 0.347 | 0.375 | 0.481 | 0.585 | -0.031 | 0.544 | 0.461 | 0.023 | 0.509 | 0.596 | 0.605 | 0.439 | 2.75 |  |  |  | 
2 | 24F4 (antibody, human IgG2, V domains shown, human IgG2 from hybridoma) VH: EVQLVQSGAEVKKPGESLKISCKGSGYTFTSYWIGWVRQMPGKGLEWMGIIYPGDSDTRYSPSFQGQVTISVDKSSSTAYLQWSSLKASDTAIYYCTRQAIAVTGLGGFDPWGQGTLVTVSS VL: EIVLTQSPGTLSLSPGERATLSCRASQSVSSSYLAWYQQKPGQAPRLLIYGASSRATGIPDRFSGSGSGTDFTLTISRLEPEDFALYYCQQYDTSPFTFGPGTKVDIK | 2.4 | 0.311 | -0.039 | -0.032 | -0.015 | 0.27 | 0.038 | 0.251 | 0.282 | -0.001 | 0.335 | 0.244 | 0.319 | 0.346 | 0.25 |  |  |  |  | 
3 | 25F12 (antibody, human IgG2, V domains shown, human IgG2 from hybridoma) VH: QVQLQQWGAGLLKPSETLSLTCAVYGGSFSSYYWSWIRQPPGKGLEWIGEINHSGNTNYNPSLKSRVTISVDTSKNQFSLKLSSVTAADTAVYYCAREGYYDILTGYHDAFDIWDQGTMVTVFS VL: not shown | 2.6 | 0.335 | 0.213 | 0.089 | 0.104 | 0.252 | 0.18 | 0.284 | 0.33 | 0.236 | 0.34 | 0.011 | 0.347 | 0.327 | 0.275 | 1.29 | 122 | 1.05 | 0.154 | 0.142
4 | 26A10 (antibody, V domains shown, human IgG2 from hybridoma) VH: EVQLVESGGALVQRGGSLRLSCAASRFTFSSFGMSWVRQAPGKGLEWVSYISSSSFTIYYADSVKGRFTISRDNAKNSFYLQMNSLRDEDTAVYYCAREGGLTMVRGVSSYGLDVWGQGTTVTVSS VL: not shown | 1.3 | -0.027 | 0.491 | 0.259 | 0.272 | -0.018 | 0.449 | 0.354 | -0.016 | 0.362 | 0.454 | 0.343 | -0.001 | -0.033 | -0.02 | 1.16 |  |  |  | 
5 | 26C10 (antibody, human IgG2, V domains shown, human IgG2 from hybridoma) VH: EVQLVESGGALVQPGGSLRLSCAASGFTFSSFGMSWVRQAPGKGLEWVSYISSSSFTIYYADSVKGRFTISRDNAKNSFYLQMNSLRDEDTAVYFCVREGGITMVRGVSSYGMDVWGQGTTVTVSS VL: SFELTQPPSVSVSPGQTASITCSGDKLGDKYVCWYQQKPGQSPMLVIYQDTKRPSGIPERFSGSNSGNTATLTISGTQAMDEADYYCQAWDSSTVVFGGGTKLTVL | 2.2 | -0.042 | 0.594 | 0.285 | 0.323 | -0.031 | 0.552 | 0.384 | -0.015 | 0.419 | 0.541 | 0.418 |  | -0.032 | -0.033 | 1.59 |  |  |  | 
6 | 16B8 (antibody, human IgG4, V domains shown, human IgG4 (G4) from hybridoma) VH: QVQLVQSGAEVKKPGASVKVSCKASGYTFTNYGISWVRQAPGQGLEWMGWISAYNGNTNYAQKLQGRVTMTTDTSTSTVYMELRSLRSDDTAVYYCARRGYSYGSFDYWGQGTLVTVSS VL: DIQMTQSPSSVSASVGDRVTVTCRASQDINSWLAWYQQKPGKAPKLLIYAASSLQTGVPSRFSGSGSGTDFTLTISSLQPEDFATYSCQQSNSFPITFGQGTRLEIK |  | -0.004 | 0.504 | 0.28 | 0.312 | -0.009 | 0.454 | 0.369 | 0.031 | 0.4 | 0.423 | 0.399 | 0.028 | 0.006 | 0.007 | 0.59 | 140 | 0.418 |  | 
